Results as given in article PMC6318328, “Structural insights into trans-histone regulation of H3K4 methylation by unique histone H4 binding of MLL3/4” (Nature Communications, 2019).

Legend:
[1] = tested on: fourth (PHD4), fifth (PHD5), and sixth (PHD6) PHD domains of MLL4; settings: peptide pull-down; histone H4 fragment containing the first 23 amino acids; ref [29]; cited from earlier work
Description: (§1) Both MLL3 and MLL4 are multi-domain proteins, containing not only the catalytic SET domain but also a few other domains, including two clusters of PHD domains (Fig. 1a). […] The interaction between histone H4_1–23 and PHD6 do ...

[2] = Gel filtration, oligomeric state in solution; assay type: physicochemical; settings: Superdex200 10/300 GL, 20 mM Tris pH 7.5, 150 mM NaCl, 50 μM ZnCl2, 1 mM DTT
Description: Supplementary Fig. 3 Superimposition of gel-filtration curves of PHD6 and ePHD6 domains of MLL3 and MLL4. Gel filtration chromatography of MLL3 ePHD6 (red), PHD6 (pink), MLL4 ePHD6 (brown), PHD6 (green) and protein molecular weight standards (blue, Bio-Rad). Samples were loaded to the Superdex200 10/300 GL (GE Healthcare) column in the buffer containing 20 mM Tris, pH 7.5, 150 mM NaCl, 50 μM ZnCl2,and1mMDTT. […]

MLL3_(ePHD6)1055–1144 = target: T1, MLL3_(ePHD6)1055–1144 (Homo sapiens, UniProt Q8NEZ4); experiment: ITC binding of histone peptides to MLL3 ePHD6 (1055–1144); set-up: key to ITC titration, Kd / Kd: NB: no detectable binding; settings: for ITC titration, Kd: Supplementary Fig. 4 and 7, MLL3_ePHD6, pH 7.5, 25 °C; for binding to ePHD6 of MLL3 (in words) / Kd: ITC; for Kd: 20 mM Tris pH 7.5, 150 mM NaCl, 25 °C, protein 50–100 μM in cell, peptide 1–2 mM in syringe, single measurement, error from fitting curve
T1 construct: MLL3_ePHD6, residues 1055–1144 and residues 1075–1144; GST (N, cleaved yes); His (N, cleaved yes); made in house; host or cells: E. coli BL21 (DE3) Codon plus RIL
T1 sequence (Q8NEZ4 1055-1144): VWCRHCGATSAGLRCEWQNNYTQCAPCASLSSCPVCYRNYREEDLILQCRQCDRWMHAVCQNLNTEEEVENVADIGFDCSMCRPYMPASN
Description: (§2) The DNA fragments of MLL3 and MLL4 PHD domains (MLL3_ePHD6, residues 1055–1144 and residues 1075–1144; MLL3_PHD6, residues 1085–1144; MLL3_PHD5, residues 1009–1055; MLL3_PHD5-6, residues 1008–1144; MLL3_ePHD3, residues 436–525; MLL4_ePHD6, residues 1475–1564, and residues 1495–1564; MLL4_PHD6 residues 1505–1564 and MLL4_PHD5 residues 1429–1475) were subcloned into a modified pET28GST-LIC vector by T4 ligase-independent method (Clontech, 638920) to generate N-terminal GST, His-tagged fusion protein. The recombinant protein was overexpressed in E coli BL21 (DE3) Codon plus RIL (Stratagene) at 15 °C by induction with 0.25 mM IPTG at an OD600 of 0.8 and purified by affinity chromatography on Ni-nitrilotriacetate resin (Qiagen, 30250) followed by thrombin protease treatment to remove the tag. The protein was further purified by HiTrap Q HP column (GE Healthcare, 17115401) by using buffers with 20 mM Tris, pH 8.0, 1 mM DTT, 50 mM NaCl (low salt buffer) or 1 M NaCl (high salt buffer), and Superdex75 gel-filtration column (GE Healthcare, 28989333) by using a buffer containing 20 mM Tris, pH 7.5, 150 mM NaCl, 50 μM ZnCl2, and 1 mM DTT. For crystallization experiments, purified protein was concentrated to 5 mg mL^−1 in the same buffer as gel-filtration by using Amicon Ultra-15 Centrifugal Filter Units (Millipore Corporation, UFC901024).
(§3) For the ITC measurement, the concentrated proteins were diluted into 20 mM Tris, pH 7.5, 150 mM NaCl; the lyophilized peptides (Peptide 2.0 Inc.) were dissolved in the same buffer, and the pH value was adjusted by adding NaOH. Peptides concentrations were estimated from the mass. […] The protein with a concentration of 50–100 μM was placed in the cell chamber, and the peptides with a concentration of 1–2 mM in syringe was injected in 25 (19 for iTC-200) successive injections with a spacing of 180 s (150 s for iTC-200) and a reference power of 13 μcal s^−1 (6 μcal s^−1 for iTC-200). Control experiments were performed under identical conditions to determine the heat signals that arise from injection of the peptides into the buffer.

MLL4_(ePHD6)1475–1564 = target: T2, MLL4_(ePHD6)1475–1564 (Homo sapiens, UniProt O14686); experiment: ITC binding of histone peptides to MLL4 ePHD6 (1475–1564); set-up: key to ITC titration, Kd / Kd: NB: no detectable binding; settings: for ITC titration, Kd: Supplementary Fig. 4 and 7, MLL4_ePHD6, pH 7.5, 25 °C; for binding to ePHD6 of MLL4 (in words) / Kd: ITC; for Kd: 20 mM Tris pH 7.5, 150 mM NaCl, 25 °C, protein 50–100 μM in cell, peptide 1–2 mM in syringe, single measurement, error from fitting curve
T2 construct: MLL4_ePHD6, residues 1475–1564, and residues 1495–1564; GST (N, cleaved yes); His (N, cleaved yes); made in house; host or cells: E. coli BL21 (DE3) Codon plus RIL
T2 sequence (O14686 1475-1564): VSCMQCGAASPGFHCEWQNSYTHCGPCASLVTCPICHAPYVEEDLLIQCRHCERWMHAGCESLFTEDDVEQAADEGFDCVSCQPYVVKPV
Description: as §2, §3

[3] = tested on: recombinant nucleosomes (histone H3K4); experiment: In vitro histone methyltransferase (HMT) assay of MLL3/MLL4 constructs; assay type: biochemical; settings: recombinant nucleosomes 0.5 μg, 2.5 μCi [3H]-SAM, 30 °C, 16 h, autoradiography (Fig. 3b, c)
Description: Mammalian expression plasmids encoding different fusions of MLL3 PHD and SET domains were subcloned into the pFLAG-CMV2 vector (Sigma-Aldrich, E7033) and were transiently expressed in HEK 293T cells (ATCC® ACS-4500™) by using Lipofectamine 2000 (ThermoFisher Scientific, 11668027) according to manufacturer’s protocol. Two days after transfection, cells were harvested and then lysed by mammalian lysis buffer (20 mM Tris-HCl, 137 mM NaCl, 1.5 mM MgCl2, 1 mM EDTA, 10% glycerol, 1% Triton X-100, 0.2 mM PMSF, 1 μg mL^−1 aprotinin, 2.5 μg mL^−1 leupeptin, and 1 μg mL^−1 pepstatin at pH 8.0). FLAG immunoprecipitation (FLAG IP) was performed in a similar way as described previously. In brief, total cell lysates were incubated with anti-FLAG M2 Affinity Gel (Sigma-Aldrich, A2220) in 4 °C for 5 h and were extensively washed with BC500 (20 mM Tris-HCl, 500 mM KCl, 1.5 mM MgCl2, 0.2 mM EDTA, 10% glycerol, 0.2 mM PMSF at pH 8.0). […]
HMT assay was performed according to a previously described method with minor modifications. […] The signals for HMT activity were detected by autoradiography. The input of the MLL3/4 proteins and nucleosomes were detected by mouse monoclonal anti-FLAG M2 (Sigma-Aldrich, F3165, 1:1000) and rabbit polyclonal anti-H3 antibody (Abcam, ab1791, 1:1000), respectively. […]

PHD6 domain of MLL4 = settings: ITC; ref [29]; cited from earlier work
Description: as §1

H4R3me2a: histone H4 fragment containing the first 23 amino acids, asymmetrically dimethylated on histone H4R3
recognition by PHD4, PHD5 and PHD6 of MLL4 [1]: able to recognize

MLL3 PHD6: PHD6 domain of MLL3 (SSCPVCYRNYREEDLILQCRQCDRWMHAVCQNLNTEEEVENVADIGFDCSMCRPYMPASN; left off: GST, N-terminal, cleaved | His tag, N-terminal, cleaved)
oligomeric state in solution [2]: monomer in solution

H41–24H18A: histone H4-derived mutant peptide
ITC titration, Kd (MLL3_(ePHD6)1055–1144): NB
ITC titration, Kd (MLL4_(ePHD6)1475–1564): NB

H4_1–12: histone H4 peptide covering the first 12 residues
binding to ePHD6 of MLL3 (in words) (MLL3_(ePHD6)1055–1144): neither MLL3 nor MLL4 displayed detectable binding
Kd (MLL3_(ePHD6)1055–1144): NB
binding to ePHD6 of MLL4 (in words) (MLL4_(ePHD6)1475–1564): neither MLL3 nor MLL4 displayed detectable binding
Kd (MLL4_(ePHD6)1475–1564): NB

1M: W1109A single point mutation of MLL3
nucleosomal methyltransferase activity [3]: reduced the enzyme activity

H411–21R17A: histone H4-derived mutant peptide (GKGGAKAHRKV; UniProt P62805 12-22, looked up, variant R17A)
ITC titration, Kd (MLL3_(ePHD6)1055–1144): NB
ITC titration, Kd (MLL4_(ePHD6)1475–1564): NB

2M: W1109A/E1120A double point mutation of MLL3
nucleosomal methyltransferase activity [3]: reduced the enzyme activity

MLL4 PHD6: PHD6 domain of MLL4 (VTCPICHAPYVEEDLLIQCRHCERWMHAGCESLFTEDDVEQAADEGFDCVSCQPYVVKPV; left off: GST, N-terminal, cleaved | His tag, N-terminal, cleaved)
oligomeric state in solution [2]: dimer in solution

H411–21R19A: histone H4-derived mutant peptide (GKGGAKRHAKV; UniProt P62805 12-22, looked up, variant R19A)
binding to ePHD6 of MLL3 (in words) (MLL3_(ePHD6)1055–1144): weakened the binding significantly
ITC titration, Kd (MLL3_(ePHD6)1055–1144): Weak binding
binding to ePHD6 of MLL4 (in words) (MLL4_(ePHD6)1475–1564): weakened the binding significantly
ITC titration, Kd (MLL4_(ePHD6)1475–1564): Weak binding

H3_1–20: histone H3 peptide, residues 1–20
Kd (MLL3_(ePHD6)1055–1144): NB
Kd (MLL4_(ePHD6)1475–1564): NB

H4R3me0: histone H4 fragment containing the first 23 amino acids, unmethylated
recognition by PHD4, PHD5 and PHD6 of MLL4 [1]: able to recognize

H4_1–12R3me2a: histone H4 peptide covering the first 12 residues, asymmetrically methylated (H4R3me2a)
Kd (MLL3_(ePHD6)1055–1144): NB
Kd (MLL4_(ePHD6)1475–1564): NB

H4_1–23: histone H4 fragment containing the first 23 amino acids
interaction with PHD6 domain (PHD6 domain of MLL4): confirmed

H411–21K16A: histone H4-derived mutant peptide (GKGGAARHRKV; UniProt P62805 12-22, looked up, variant K16A)
binding to ePHD6 of MLL3 (in words) (MLL3_(ePHD6)1055–1144): weakened the binding significantly
ITC titration, Kd (MLL3_(ePHD6)1055–1144): Weak binding
binding to ePHD6 of MLL4 (in words) (MLL4_(ePHD6)1475–1564): weakened the binding significantly
ITC titration, Kd (MLL4_(ePHD6)1475–1564): Weak binding

H411–21H18A: histone H4-derived mutant peptide (GKGGAKRARKV; UniProt P62805 12-22, looked up, variant H18A)
ITC titration, Kd (MLL3_(ePHD6)1055–1144): NB
ITC titration, Kd (MLL4_(ePHD6)1475–1564): NB
